The Human Domainome abundance scans (Beltran et al. 2025)
± gives the uncertainty stated by the source.

B1: Activity-dependent neuroprotector homeobox protein, residues 770 to 810; numbered along this chain, Q9H2P0 (parent)
chain: FLTKYFNKQPYPTRREIEKLAASLWLWKSDIASHFSNKRKK

Variants of: B1
Test: abundance fitness (aPCA) (normalised: wild type 0, dead -1); higher = more abundant; growth selection in yeast, the domain comes from the species named
Details: Homo sapiens
Variant A21M has an abundance fitness of 0.083 ± 0.12. Work on A21K yielded an abundance fitness of 0.138 ± 0.058. Work on A21S yielded an abundance fitness of -0.012 ± 0.072. Work on A21H yielded an abundance fitness of -0.413 ± 0.075. For A21V, the abundance fitness was -0.128 ± 0.087. For A21G, the abundance fitness was 0.202 ± 0.059. Work on A21L yielded an abundance fitness of -0.082 ± 0.06. Work on A21P yielded an abundance fitness of -0.3 ± 0.086. Variant A21E has an abundance fitness of -0.39 ± 0.12. Work on A21C yielded an abundance fitness of -0.099 ± 0.074. Variant A21I has an abundance fitness of -0.169 ± 0.099. A21Q gave an abundance fitness of -0.328 ± 0.17. Variant A21R has an abundance fitness of -0.021 ± 0.063. For K19P, the abundance fitness was -0.864 ± 0.17. With K19D the abundance fitness was -0.099 ± 0.075. K19S gave an abundance fitness of -0.413 ± 0.067. With K19E the abundance fitness was -0.241 ± 0.11. Variant K19H has an abundance fitness of -0.413 ± 0.17. K19Y showed an abundance fitness of -0.764 ± 0.12. For K19C, the abundance fitness was -0.502 ± 0.11. Work on K19I yielded an abundance fitness of -0.686 ± 0.18. For K19F, the abundance fitness was -0.944 ± 0.14. With K19L the abundance fitness was -0.63 ± 0.089. For K19V, the abundance fitness was -0.502 ± 0.082. K19A gave an abundance fitness of -0.52 ± 0.07. In the case of K19G, the abundance fitness is reported as -0.221 ± 0.06. Work on K19Q yielded an abundance fitness of -0.276 ± 0.089. For K19W, the abundance fitness was -0.79 ± 0.2. Work on K19N yielded an abundance fitness of -0.144 ± 0.092. With K19T the abundance fitness was -0.302 ± 0.06. In the case of R14H, the abundance fitness is reported as -0.514 ± 0.42. For R14P, the abundance fitness was -0.391 ± 0.14. For R14K, the abundance fitness was -0.048 ± 0.27. Work on R14L yielded an abundance fitness of -0.14 ± 0.081. In the case of R14M, the abundance fitness is reported as -0.028 ± 0.12. Variant R14Y has an abundance fitness of -0.13 ± 0.25. Work on R14A yielded an abundance fitness of -0.595 ± 0.22. R14F showed an abundance fitness of -0.392 ± 0.14. R14W gave an abundance fitness of -0.262 ± 0.12. With R14Q the abundance fitness was -0.265 ± 0.14. For R14V, the abundance fitness was -0.388 ± 0.13. R14S showed an abundance fitness of -0.387 ± 0.072. Variant R14D has an abundance fitness of -0.826 ± 0.28. R15E showed an abundance fitness of -0.02 ± 0.085. Variant R15S has an abundance fitness of -0.018 ± 0.053. R15H showed an abundance fitness of -0.384 ± 0.11. R15G gave an abundance fitness of -0.088 ± 0.061. R15Q gave an abundance fitness of -0.162 ± 0.085. For R15C, the abundance fitness was -0.182 ± 0.089. With R15W the abundance fitness was -0.326 ± 0.12. With R15D the abundance fitness was -0.278 ± 0.15. With R15M the abundance fitness was -0.204 ± 0.069. For R15A, the abundance fitness was 0.116 ± 0.052. R15V gave an abundance fitness of -0.149 ± 0.13. Work on R15L yielded an abundance fitness of -0.211 ± 0.058. Work on R15K yielded an abundance fitness of 0.093 ± 0.072. Work on R15N yielded an abundance fitness of -0.173 ± 0.26. R15I gave an abundance fitness of -0.252 ± 0.14. Variant R15T has an abundance fitness of -0.005 ± 0.066. In the case of E18H, the abundance fitness is reported as -0.257 ± 0.12. Variant E18K has an abundance fitness of 0.172 ± 0.062. In the case of E18Q, the abundance fitness is reported as 0.061 ± 0.069. With E18V the abundance fitness was -0.509 ± 0.063. With E18D the abundance fitness was -0.109 ± 0.15. Work on E18M yielded an abundance fitness of 0.075 ± 0.41. E18I gave an abundance fitness of -0.749 ± 0.49. E18R gave an abundance fitness of 0.066 ± 0.05. Variant E18Y has an abundance fitness of -0.378 ± 0.14. E18A showed an abundance fitness of -0.025 ± 0.047. Work on E18C yielded an abundance fitness of -0.232 ± 0.069. With E18P the abundance fitness was -0.189 ± 0.068. For E18T, the abundance fitness was -0.176 ± 0.08. E18N gave an abundance fitness of -0.213 ± 0.083. With E18W the abundance fitness was -0.356 ± 0.11. Work on I17Q yielded an abundance fitness of -0.89 ± 0.14. For I17L, the abundance fitness was -0.019 ± 0.068. Variant I17D has an abundance fitness of -0.604 ± 0.2. For I17G, the abundance fitness was -0.158 ± 0.055. Work on I17H yielded an abundance fitness of -0.237 ± 0.06. Variant I17N has an abundance fitness of -0.687 ± 0.14. Work on I17P yielded an abundance fitness of -0.296 ± 0.066. In the case of I17V, the abundance fitness is reported as -0.025 ± 0.053. Work on I17A yielded an abundance fitness of -0.127 ± 0.059. In the case of I17F, the abundance fitness is reported as -0.205 ± 0.079. With I17E the abundance fitness was -0.61 ± 0.11. For I17W, the abundance fitness was 0.18 ± 0.066. Variant I17M has an abundance fitness of 0.239 ± 0.087. In the case of I17K, the abundance fitness is reported as -0.404 ± 0.09. Variant I17C has an abundance fitness of -0.024 ± 0.072. I17S gave an abundance fitness of -0.455 ± 0.061. I17Y showed an abundance fitness of -0.1 ± 0.086. With I17R the abundance fitness was -0.294 ± 0.056. Variant T13R has an abundance fitness of -0.048 ± 0.055. For T13Q, the abundance fitness was -0.098 ± 0.084. For T13H, the abundance fitness was -0.135 ± 0.079. Work on T13L yielded an abundance fitness of 0.132 ± 0.077. With T13G the abundance fitness was 0.16 ± 0.051. Variant T13M has an abundance fitness of 0.28 ± 0.15. Work on T13E yielded an abundance fitness of -0.369 ± 0.1. Variant T13I has an abundance fitness of 0.101 ± 0.11. T13D gave an abundance fitness of -0.26 ± 0.11. T13K gave an abundance fitness of -0.046 ± 0.092. Variant T13S has an abundance fitness of -0.079 ± 0.083. With T13A the abundance fitness was 0.016 ± 0.069. Work on T13F yielded an abundance fitness of 0.044 ± 0.29. Variant T13V has an abundance fitness of 0.088 ± 0.069. Variant T13W has an abundance fitness of 0.221 ± 0.072. With T13Y the abundance fitness was 0.083 ± 0.18. Variant E16R has an abundance fitness of 0.054 ± 0.051. With E16F the abundance fitness was 0.304 ± 0.2. E16V gave an abundance fitness of -0.168 ± 0.082. Variant E16H has an abundance fitness of -0.133 ± 0.086. Work on E16Y yielded an abundance fitness of -0.096 ± 0.091. With E16K the abundance fitness was 0.095 ± 0.13. In the case of E16I, the abundance fitness is reported as 0.009 ± 0.23. In the case of E16P, the abundance fitness is reported as 0.159 ± 0.067. With E16C the abundance fitness was 0.082 ± 0.063. Variant E16W has an abundance fitness of 0.173 ± 0.089. For E16S, the abundance fitness was -0.036 ± 0.085. In the case of E16M, the abundance fitness is reported as -0.04 ± 0.13. For E16D, the abundance fitness was 0.016 ± 0.091. Variant E16A has an abundance fitness of -0.14 ± 0.06. E16L gave an abundance fitness of -0.194 ± 0.06. Variant E16T has an abundance fitness of -0.065 ± 0.076. Y11P gave an abundance fitness of -0.124 ± 0.061. In the case of Y11S, the abundance fitness is reported as 0.275 ± 0.047. Y11N showed an abundance fitness of 0.124 ± 0.059. For Y11Q, the abundance fitness was 0.181 ± 0.071. With Y11T the abundance fitness was 0.135 ± 0.061. Work on Y11R yielded an abundance fitness of -0.035 ± 0.052. Work on Y11I yielded an abundance fitness of 0.05 ± 0.087. In the case of Y11L, the abundance fitness is reported as -0.006 ± 0.052. For Y11W, the abundance fitness was 0.003 ± 0.095. Work on Y11V yielded an abundance fitness of 0.031 ± 0.053. In the case of Y11M, the abundance fitness is reported as 0.058 ± 0.085. With L20T the abundance fitness was -0.106 ± 0.076. L20D gave an abundance fitness of -0.322 ± 0.11. With L20N the abundance fitness was -0.152 ± 0.15. With L20R the abundance fitness was -0.144 ± 0.064. For L20H, the abundance fitness was -0.269 ± 0.085. L20P gave an abundance fitness of -0.124 ± 0.057. Work on L20E yielded an abundance fitness of -1.02 ± 0.25. With L20G the abundance fitness was -0.181 ± 0.069. In the case of L20C, the abundance fitness is reported as 0.124 ± 0.094. Variant L20I has an abundance fitness of -0.005 ± 0.099. Work on L20K yielded an abundance fitness of 0.036 ± 0.14. Variant L20A has an abundance fitness of -0.038 ± 0.066. L20F showed an abundance fitness of 0.042 ± 0.06. L20Q gave an abundance fitness of -0.462 ± 0.096. For L20Y, the abundance fitness was 0.064 ± 0.12. Variant L20S has an abundance fitness of -0.243 ± 0.052. L20V showed an abundance fitness of -0.025 ± 0.061. L20W showed an abundance fitness of 0.257 ± 0.085. Work on P12T yielded an abundance fitness of -0.142 ± 0.079. Work on P12Q yielded an abundance fitness of -0.036 ± 0.091. Work on P12F yielded an abundance fitness of -0.402 ± 0.12. With P12A the abundance fitness was 0.048 ± 0.059. For P12R, the abundance fitness was -0.128 ± 0.061. Variant P12L has an abundance fitness of -0.22 ± 0.082. Work on P12W yielded an abundance fitness of -0.235 ± 0.087. P12M gave an abundance fitness of -0.114 ± 0.13. For P12G, the abundance fitness was 0.099 ± 0.051. P12K showed an abundance fitness of 0.062 ± 0.21. For P12D, the abundance fitness was 0.092 ± 0.098. Work on P12S yielded an abundance fitness of -0.102 ± 0.061. For P12V, the abundance fitness was -0.584 ± 0.088. In the case of P12E, the abundance fitness is reported as 0.059 ± 0.091.
